± gives the uncertainty stated by the source.
B1: Far upstream element-binding protein 3, residues 75 to 150; numbered along this chain, Q96I24 (parent)
chain: RTVITEEFKVPDKMVGFIIGRGGEQISRIQAESGCKIQIASESSGIPERPCVLTGTPESIEQAKRLLGQIVDRCRN

Variants of: B1
Test: abundance fitness (aPCA) (normalised: wild type 0, dead -1); higher = more abundant; growth selection in yeast, the domain comes from the species named
Conditions: Homo sapiens

Row | Variant | abundance fitness
1 | K36D | 0.001 ± 0.054
2 | S27Y | -0.241 ± 0.095
3 | C51H | -0.475 ± 0.092
4 | I26D | -0.518 ± 0.052
5 | I70D | -0.209 ± 0.056
6 | G45H | -0.065 ± 0.057
7 | G34C | -0.268 ± 0.054
8 | I39E | -0.502 ± 0.037
9 | I46P | 0.016 ± 0.046
10 | V52Q | 0.043 ± 0.043
11 | E58W | -0.161 ± 0.04
12 | K9H | 0.012 ± 0.07
13 | E48C | -0.158 ± 0.041
14 | R65F | 0.017 ± 0.058
15 | G16M | -0.12 ± 0.043
16 | K13S | -0.018 ± 0.031
17 | E6H | -0.09 ± 0.063
18 | E24Q | 0.055 ± 0.041
19 | Q38H | -0.059 ± 0.062
20 | F8D | -0.208 ± 0.07
21 | L66C | -0.114 ± 0.051
22 | K64G | -0.658 ± 0.032
23 | Q62D | -0.005 ± 0.04
24 | Q25A | -0.098 ± 0.03

Row | Variant | abundance fitness
25 | I60V | -0.025 ± 0.03
26 | V71Y | -0.047 ± 0.054
27 | P50I | 0.004 ± 0.05
28 | E6F | -0.16 ± 0.056
29 | I29A | -0.213 ± 0.032
30 | Q30K | -0.171 ± 0.047
31 | V3A | -0.064 ± 0.034
32 | L53T | -0.94 ± 0.077
33 | R1L | -0.079 ± 0.054
34 | G20S | -0.151 ± 0.035
35 | R75F | 0.003 ± 0.073
36 | K13E | -0.032 ± 0.035
37 | E6D | -0.084 ± 0.047
38 | N76L | -0.028 ± 0.049
39 | V3M | -0.037 ± 0.046
40 | G20E | -0.127 ± 0.034
41 | I26S | -0.436 ± 0.035
42 | F17Q | -0.031 ± 0.045
43 | V3L | -0.007 ± 0.034
44 | R21T | 0.009 ± 0.041
45 | I18F | -0.133 ± 0.064
46 | V71T | -0.026 ± 0.042
47 | E58P | -0.108 ± 0.046
48 | R49T | -0.044 ± 0.046

Row | Variant | abundance fitness
49 | A31H | 0.057 ± 0.051
50 | T54V | -0.044 ± 0.041
51 | I37M | -0.232 ± 0.039
52 | Q69R | 0.005 ± 0.029
53 | P47Y | -0.12 ± 0.058
54 | R1D | 0.022 ± 0.076
55 | Q30M | -0.097 ± 0.041
56 | G20T | -0.228 ± 0.044
57 | L66R | -0.061 ± 0.028
58 | R75W | 0.007 ± 0.034
59 | E32V | -0.073 ± 0.027
60 | I18L | -0.085 ± 0.032
61 | I29G | -0.677 ± 0.028
62 | V10K | -0.794 ± 0.063
63 | K9V | -0.047 ± 0.028
64 | F17G | -0.06 ± 0.029
65 | E6G | -0.19 ± 0.026
66 | R65E | 0.013 ± 0.034
67 | K64E | -0.388 ± 0.038
68 | M14A | -0.172 ± 0.035
69 | I19N | -0.001 ± 0.069
70 | Q25R | 0.023 ± 0.026
71 | C74M | -0.021 ± 0.042
72 | S33V | -0.247 ± 0.033

Row | Variant | abundance fitness
73 | S33K | -0.787 ± 0.081
74 | V71A | -0.117 ± 0.03
75 | N76I | -0.178 ± 0.086
76 | G23D | -0.091 ± 0.044
77 | A31R | -0.005 ± 0.025
78 | V3I | 0.044 ± 0.075
79 | E58M | -0.128 ± 0.051
80 | G22R | -0.012 ± 0.027
81 | C51P | -0.671 ± 0.066
82 | T54E | -0.071 ± 0.05
83 | Q25H | -0.077 ± 0.057
84 | G55Q | -1.18 ± 0.083
85 | E24H | 0.059 ± 0.068
86 | S33M | -0.646 ± 0.052
87 | C74E | -0.041 ± 0.037
88 | C74Q | -0.002 ± 0.04
89 | K64A | -0.429 ± 0.031
90 | E6L | -0.235 ± 0.03
91 | Q25P | -0.163 ± 0.041
92 | Q69P | -0.156 ± 0.039
93 | M14Y | -0.176 ± 0.083
94 | V52T | -0.044 ± 0.038
95 | A40F | 0.013 ± 0.057
96 | I19S | -0.045 ± 0.035

Row | Variant | abundance fitness
97 | T2A | -0.049 ± 0.032
98 | I4C | -0.092 ± 0.045
99 | M14I | -0.33 ± 0.066
100 | L66M | -0.038 ± 0.04
101 | G34W | -0.665 ± 0.048
102 | P50G | -0.014 ± 0.026
103 | I18H | -0.279 ± 0.058
104 | I60W | -0.995 ± 0.059
105 | Q62H | -0.011 ± 0.037
106 | M14H | -0.089 ± 0.055
107 | I29W | -0.521 ± 0.034
108 | P11F | -0.422 ± 0.076
109 | R73M | -0.048 ± 0.042
110 | P50V | -0.031 ± 0.03
111 | I70N | -0.261 ± 0.087
112 | E58R | -0.086 ± 0.031
113 | A31E | 0.025 ± 0.034
114 | V71M | -0.013 ± 0.04
115 | I70K | -0.138 ± 0.044
116 | V15N | -0.349 ± 0.06
117 | G34P | -0.775 ± 0.067
118 | L67D | -0.884 ± 0.089
119 | V52M | -0.039 ± 0.046
120 | A31D | -0.015 ± 0.046

Row | Variant | abundance fitness
121 | P57T | 0.006 ± 0.048
122 | R28W | -0.118 ± 0.034
123 | D12W | -0.255 ± 0.034
124 | G23K | -0.082 ± 0.039
125 | Q30L | -0.471 ± 0.036
126 | S33P | -0.728 ± 0.06
127 | E24F | -0.043 ± 0.057
128 | K36G | -0.112 ± 0.029
129 | K64D | -0.89 ± 0.071
130 | C35N | -0.539 ± 0.11
131 | F8T | -0.042 ± 0.046
132 | I39Y | -0.327 ± 0.06
133 | I29H | -0.622 ± 0.083
134 | I60K | -0.767 ± 0.065
135 | P57V | -0.06 ± 0.037
136 | M14F | -0.127 ± 0.08
137 | C74K | -0.027 ± 0.054
138 | G55Y | -1.28 ± 0.17
139 | L66Q | -0.072 ± 0.044
140 | Q25C | -0.025 ± 0.041
141 | A40P | -0.024 ± 0.04
142 | P11D | -0.061 ± 0.056
143 | G20Y | -0.524 ± 0.091
144 | G22E | -0.044 ± 0.035

Row | Variant | abundance fitness
145 | G45R | -0.055 ± 0.026
146 | V52N | -0.133 ± 0.056
147 | T5Y | -0.164 ± 0.08
148 | R65L | -0.017 ± 0.03
149 | R28V | -0.202 ± 0.028
150 | P50T | -0.053 ± 0.035
151 | R49K | -0.099 ± 0.047
152 | E42H | 0.01 ± 0.084
153 | M14P | -0.451 ± 0.05
154 | T56M | -0.183 ± 0.038
155 | T2G | 0 ± 0.029
156 | I46E | 0.063 ± 0.033
157 | K36M | -0.066 ± 0.042
158 | E48F | -0.09 ± 0.046
159 | E48D | 0.001 ± 0.045
160 | A31L | -0.063 ± 0.029
161 | R28Y | -0.173 ± 0.061
162 | I26F | -0.173 ± 0.06
163 | C51L | -0.062 ± 0.035
164 | V52Y | -0.115 ± 0.056
165 | A40G | -0.018 ± 0.025
166 | K13D | -0.082 ± 0.043
167 | P11R | -0.288 ± 0.029
